Data taken from patent US7144988B2, “Method of structure-based drug design to create or improve modulators of IL-1 activity which bind to the interleukin-1 type 1 receptor” (Array Biopharma, Inc., priority 2002, dated 2006).

Biological target: T1, IL1R2D (modified IL-1 type 1 receptor, amino acids 18 to 222) (Homo sapiens, UniProt P14778)
T1 construct: made in house; host or cells: Hi5 insect cells, recombinant baculovirus (made in Sf9)
T1 sequence (P14778 18-222): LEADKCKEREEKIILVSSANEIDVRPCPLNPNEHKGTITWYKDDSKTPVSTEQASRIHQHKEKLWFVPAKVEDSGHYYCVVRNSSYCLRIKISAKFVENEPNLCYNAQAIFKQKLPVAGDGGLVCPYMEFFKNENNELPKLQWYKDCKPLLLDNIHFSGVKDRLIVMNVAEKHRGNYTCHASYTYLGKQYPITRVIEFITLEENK
Assay: Binding affinity of ligands to modified IL-1 type 1 receptor IL1R2D

Kd: ≥ 1 µM
Substance: IL-1ra: IL-1 receptor antagonist protein; competes with IL-1α and β for receptor binding
